Legend:
Type in all cases: cell-based
[1] = tested on: S. aureus ATCC 29213; assay: Minimum inhibitory concentration (MIC) in bacteria suspension; settings: for MIC values: thermolysin, where present, kept constant at 50 μg/mL
Method: (§1) The concentration of thermolysin in the MIC experiments was kept constant at 50 μg/mL.

[2] = tested on: P. aeruginosa ATCC 27312; assay: as above; settings: for MIC values: thermolysin, where present, kept constant at 50 μg/mL
Method: as §1

[3] = tested on: P. aeruginosa ATCC 15442 bacterial biofilm; assay: In-vitro gram-negative bacterial biofilm study, 96 well plate, crystal violet staining; settings: 18 hours at 37° C., FIG. 2
Method: An in-vitro assay was performed to determine the bacterial biofilm reduction capabilities of thermolysin and collagenase on gram-negative bacterial biofilms. In this assay P. aeruginosa ATCC 15442 was suspended in a growth media of 10% tryptic soy broth in PBS supplemented with 0.45% glucose (TSBG). The suspension was transferred to the wells of sterile 96 well plates and incubated for 18 hours at 37° C., then the media was changed with fresh media and incubated an additional 8 hours at 37° C. After formation of the bacterial biofilm, the growth media was replaced with solutions of thermolysin dissolved in TSBG growth media at various concentrations in some wells and replaced with solutions of collagenase dissolved in growth media at the same concentrations in other wells (enzyme concentrations were 0.00001 mg/mL, 0.0001 mg/mL, 0.001 mg/mL, 0.01 mg/mL, 0.1 mg/mL, 1.0 mg/mL, and 10 mg/mL). After 18 hours at 37° C., the remaining attached bacteria were quantified by removing the enzyme solutions (enzyme+TSBG growth media) and washing the plate thoroughly followed by crystal violet staining and recording the absorbance at 570 nm. A growth media control without enzyme was also tested. […] A decreased absorbance compared to the Control indicates a reduction of attached bacteria meaning a reduction of the bacterial biofilm occurred.

[4] = tested on: S. aureus ATCC 6538 bacterial biofilm; assay: In-vitro gram-positive bacterial biofilm study, 96 well plate, crystal violet staining; settings: concentrations of 0.00001 mg/mL-10 mg/mL, 16 hours, FIG. 1
Method: An in-vitro assay was performed to determine the bacterial biofilm reduction capabilities of thermolysin and collagenase on gram-positive bacterial biofilms. In this assay, S. aureus ATCC 6538 was suspended in a growth media of tryptic soy broth supplemented with 0.25% glucose for optimal bacterial biofilm formation. The suspension was transferred to the wells of sterile 96 well plates and incubated for 22 hours at 37° C. with one change of media. After formation of the bacterial biofilm, the growth media was replaced with solutions of thermolysin dissolved in growth media at various concentrations in some wells and replaced with solutions of collagenase dissolved in growth media at the same concentrations in other wells (enzyme concentrations were 0.000001 mg/mL, 0.00001 mg/mL, 0.0001 mg/mL, 0.001 mg/mL, 0.01 mg/mL, 0.1 mg/mL, 1.0 mg/mL, and 10 mg/mL). After 16 hours, the remaining attached bacteria were quantified by aspirating the enzyme solutions (enzyme+growth media) and washing the plate thoroughly followed by crystal violet staining and recording the absorbance at 570 nm. A growth media control without enzyme was also tested. The crystal violet binds to negative charges on the remaining attached bacteria and the EPS. A decreased absorbance compared to the Control indicates a reduction of attached bacteria meaning a reduction of the bacterial biofilm occurred.

| Molecule | MIC values ([1]; Rep 1) [µg/mL] | MIC values ([1]; Rep 2) [µg/mL] | MIC values ([2]; Rep 1) [µg/mL] | MIC values ([2]; Rep 2) [µg/mL] | effect in reducing the bacterial biofilm (crystal violet absorbance at 570 nm vs growth media control) ([3]; concentrations of 0.00001 mg/mL-0.01 mg/mL) | effect in reducing the bacterial biofilm (crystal violet absorbance at 570 nm vs growth media control) ([3]; concentrations of 0.1 mg/mL-10 mg/mL) | effect of the addition of thermolysin on the MIC of gentamicin sulfate ([1]; thermolysin 50 μg/mL) | effect of the addition of thermolysin on the MIC of gentamicin sulfate ([2]; thermolysin 50 μg/mL) | effect in reducing the bacterial biofilm (crystal violet absorbance at 570 nm vs growth media control) [4] |
| --- | --- | --- | --- | --- | --- | --- | --- | --- | --- |
| gentamicin sulfate | 1.6 | 1.6 | 50 | 50 | – | – | – | – | – |
| thermolysin (protein, UniProt P00800 233-548, looked up) Thermolysin: ITGTSTVGVGRGVLGDQKNINTTYSTYYYLQDNTRGNGIFTYDAKYRTTLPGSLWADADNQFFASYDAPAVDAHYYAGVTYDYYKNVHNRLSYDGNNAAIRSSVHYSQGYNNAFWNGSQMVYGDGDGQTFIPLSGGIDVVAHELTHAVTDYTAGLIYQNESGAINEAISDIFGTLVEFYANKNPDWEIGEDVYTPGISGDSLRSMSDPAKYGDPDHYSKRYTGTQDNGGVHINSGIINKAAYLISQGGTHYGVSVVGIGRDKLGKIFYRALTQYLTPTSNFSQLRAAAVQSATDLYGSTSQEVASVKQAFDAVGVK | – | – | – | – | little effect | no effect | did not affect the MIC | did not affect the MIC | had an effect in reducing the bacterial biofilm |
